US11938195B2, “Upconversion nanoparticle peptide conjugates” (BP InnoMed Limited, priority 2021, dated 2024)
Where a SMILES comes first, the peptide text is derived from it. Where no end group is shown, it is not given here. [ ]: non-standard residue; d: D form. Ahx = NCCCCCC(=O)O

How the values were obtained:
EBV-positive C666 cells [1] = test: MTT cytotoxicity assay, C666 cells; conditions: 24 h
Experimental: The inhibitory effects of the novel nanoprobes on both EBV-infected cancer cells and non-EBV-infected cancer cells were investigated by MTT assays to test the cell viability. The cytotoxic assays were performed in EBV-positive C666 and NPC43 cells, LMP1-positive LCL3 and Raji cells, and the LMP1-positive and -negative HK1 cell pair. HK1, MRC-5 and HeLa cell lines are EBV-negative and they serve as negative controls. […] In addition, UCNP-P4, EBNA1-specific peptide coated UCNPs was included as control group, so the ability of inhibiting EBV-related cancer cells can be directly compared with UCNP-Pn [n=5, 6 and 7 (SEQ ID NO: 5, 6, 7)].
In vitro cytotoxic assays: The cytotoxicity of our nanoprobes was determined by MTT reduction assay. The cells (3×10^3 per well) were seeded onto 96-well plates and incubated overnight, followed by treatment with Pn [n=5, 6 and 7 (SEQ ID NO: 5, 6, 7)], UCNP, UCNP-Pn [n=5, 6 and 7 (SEQ ID NO: 5, 6, 7)] and UCNP-P4 individually at 37° C., 5% CO2 for 24 h in dark. The cell monolayers were rinsed with PBS and 50 μL of MTT, 3-(4,5-dimethylthiazol-2-yl)-2,5-diphenyltetrazolium bromide solution (0.5 mg mL^−1) was added per well and the cells were further incubated for 3 h at 37° C. The solution was subsequently discarded, and the formazan crystals were dissolved in 100 μL of DMSO per well under shaking. The absorptions of the formazan crystal solutions at 540 nm and 690 nm were measured using a dual-wavelength Labsystem Multiskan microplate reader (Merck Eurolab).

p65 [2] = test: Western blot of p65 (NF-κB) in LCL3 cells; format: cell-based
From the text: (§1) NF-κB signaling pathway is critical for the survival of EBV-infected tumor cells. Here we investigated if our nanoprobes could affect this oncogenic pathway. EBV-positive LCL3 and C666 cells were used as models, EBV-negative HK1 cells were used as control and Western blot was used to analyze the protein expression of p65, a major transcription factor in the NF-κB family. […] GAPDH and Histone are regarded as internal standards in cytosolic and nuclear fractions, respectively. […] This is consistent with the cellular uptake results.
(§2) Western blotting: EBV-positive C666, LCL3 and EBV-negative HK1 cell pellets were treated with phosphatase and protease inhibitors at 0-4° C. for 30 min. The total protein concentrations were calculated by protein absorbance. The protein was resolved by sodium dodecyl sulfate-polyacrylamide gel electrophoresis (SDS-PAGE) and transferred to cellulose filter membranes. The membranes were blocked with 3% BSA in Tris-buffered saline in 0.1% Tween 20 (TBST) for 1 h with gentle shaking and subsequently incubated with primary antibodies (1:1000) in 3% BSA in TBST at 4° C. for overnight. After rinsing with TBST buffer three times, the blots were then incubated with corresponding secondary anti-rabbit antibody (1:6000) for 1 h. After that, the blots were rinsed again with 3% BSA in TBST for 1 h shaking at room temperature. Lastly, the density of bands was determined by image analysis system after washing with TBST buffer three times.

p65 [3] = test: Western blot of p65 (NF-κB) in C666 cells; format: cell-based
From the text: as §1, §2

C666 derived xenografts = test: In vivo suppression assay, C666 xenograft; conditions: for Effect on average tumor size: 12.5 mg/kg, intravenous (tail vein), twice a week, 33 days; for Body weight: C666 tumor-bearing mice, 33-day experimental period
From the text: To determine the antitumor efficacy of the new nanoprobes in vivo, their therapeutic effects were investigated in C666 and HeLa derived xenografts in BALB/c nude mice. The mice were randomly divided into five groups: (1) control (PBS), (2) UCNP, (3) UCNP-P5, (4) UCNP-P6, (5) UCNP-P7. In order to recapitulate the clinical setting of drug delivery, intravenous injection (via a tail vein) was used to deliver these agents to the immunocompromised animal.
In vivo suppression assays: EBV-positive C666 and EBV-negative HeLa cells were suspended in 200 μL of serum-free RMPI 1640 and DMEM respectively. Female BALB/c nude mice (6-8 weeks) which obtained from HKU were then injected with the cells in the right flank. Intravenous injections were performed when the average tumor volumes reached ˜200 mm^3. 0.25 mg/tumor dose of UCNP and UCNP-Pn [n=5, 6 and 7 (SEQ ID NO: 5, 6, 7)] in […] PBS buffer were injected through tail vein of mice using a 24-gauge syringe. Mice injected with the same volume of PBS buffer served as control. The body weight and tumor volumes of the mice were measured three times per week; in which the latter is calculated by (L×W^2)/2, where L and W are the longer and shorter tumor dimensions respectively. Intravenous injection at the tail vein were performed twice a week and the mice were sacrificed after 33-day experimental period; the tumors were extracted and weighed. The treatment groups are unknown to the investigators for the experimental and data analysis processes. The animal experiments conducted were approved by the Department of Health of the HKSAR Government. All animal procedures are within the Guidelines for Care and Use of Laboratory Animals of HKBU and approved by the Animal Ethics Committee of HKBU.
Hematoxylin and eosin (H&E) staining: In general, the transplanted C666 and HeLa derived tumor tissues were collected and fixed with formalin, followed by embedding in paraffin. The histologic sections were then stained with hematoxylin and eosin. Other major organ tissues (heart, liver, spleen, lung, kidney, brain) were conducted in the same procedures.

[4] = Peptide release from nanoprobes under various time intervals (UV-vis absorbance); format: physicochemical; conditions: 0.5 mg/mL
From the text: The stability and capability of cleavage of the pH linker were also studied. […] More importantly, TEM images of UCNP-P5 at different pH buffers were observed and investigated in FIG. 1, providing direct evidence on pH-responsive peptide release from UCNP.

[5] = Peptide release from nanoprobes under various pH buffers (UV-vis absorbance); format: physicochemical; conditions: 24 h in buffer, 0.5 mg/mL
From the text: The stability and capability of cleavage of the pH linker were also studied. […] More importantly, TEM images of UCNP-P5 at different pH buffers were observed and investigated in FIG. 1, providing direct evidence on pH-responsive peptide release from UCNP. […]

[6] = molecular target: EBNA1 (DNA-binding domain fragment of a.a.468-607) (Epstein-Barr virus, UniProt P03211); test: EBNA1 dimerization/oligomerization inhibition assay; format: biochemical; conditions: 0.3 mg/mL nanoprobe, 90 mg EBNA1, DSS crosslinking, SDS gel
Experimental: EBNA1 dimerization/oligomerization inhibition assays were performed to reveal the ability of interrupting EBNA1 dimerization/oligomerization in the presence of the previous nanoprobe UCNP-P4 and the nanoplatforms in situ.
(conc.: 0.3 mg/mL) at 4° C. overnight. Then, 2 mM disuccinimidyl suberate (DSS) was added to allow the samples to undergo crosslinking reaction at room temperature for 30 min. The samples were run and separated on an SDS-denaturing gel and proteins were detected using Coomassie Blue staining. PBS buffer was used as control group.

EBV-positive C666 cells [7] = test: Two-photon confocal imaging, C666; format: cell-based; conditions: mainly from the nuclei, 24 h incubation
Experimental: After the study of cellular uptake, fluorescent confocal microscopy was used to study the sub-cellular localization with the same set of EBV-/LMP1-positive and -negative cell lines. All these cell lines were treated with as-prepared samples for different time intervals of 1 h, 3 h, 6 h, 12 h and 24 h. Fluorescence signals in the cells were imaged under 980 nm excitation.
The cells were then co-stained with 0.05 mM nuclear dye DRAQ5 for 0.5 h for confocal imaging with a Leica SP8 confocal microscope equipped with a coherent femtosecond laser (690-1050 nm), argon laser (432 nm, 457 nm and 488 nm), He—Ne laser (632 nm), UV lamp. A stage-top cell culture chamber was also used to maintain the atmospheric conditions of 2-7% CO2 and a temperature of 37° C.

Sequence of EBNA1 (DNA-binding domain fragment of a.a.468-607) (P03211 468-607): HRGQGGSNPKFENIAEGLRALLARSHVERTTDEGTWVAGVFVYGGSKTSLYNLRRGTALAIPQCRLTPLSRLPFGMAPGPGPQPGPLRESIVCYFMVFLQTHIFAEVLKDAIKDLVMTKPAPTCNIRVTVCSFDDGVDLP

| Compound | Cytotoxicity of free peptides (MTT cell viability) (EBV-positive C666 cells [1]) | Peptide release rate ([4]; 1 h) [%] | Peptide release rate ([4]; 3 h) [%] | Peptide release rate ([4]; 6 h) [%] | Peptide release rate ([4]; 12 h) [%] | Peptide release rate ([4]; 24 h) [%] | Peptide release rate ([4]; 3 day) [%] | Peptide release rate ([4]; 7 day) [%] | Peptide release rate ([5]; pH 5.0) [%] | Peptide release rate ([5]; pH 5.5) [%] | Peptide release rate ([5]; pH 6.0) [%] | Peptide release rate ([5]; pH 6.5) [%] | Peptide release rate ([5]; pH 7.0) [%] | Peptide release rate ([5]; pH 7.4) [%] | Responsive emission enhancement (lambda scan) (EBV-positive C666 cells [7]) | Effect on average tumor size (C666 derived xenografts) | Body weight (C666 derived xenografts) | also measured |
| --- | --- | --- | --- | --- | --- | --- | --- | --- | --- | --- | --- | --- | --- | --- | --- | --- | --- | --- |
| CSCC[C@H](NC(=O)[C@H](Cc1ccccc1)NC(=O)[C@H](Cc1ccc(O)cc1)NC(=O)CCCCCN)C(=O)N[C@H](C(=O)N[C@@H](Cc1ccccc1)C(=O)NCC(=O)NCC(=O)N[C@@H](CCCNC(=N)N)C(=O)N[C@H](CCCNC(=N)N)C(=O)N[C@@H](CCCNC(=N)N)C(=O)N[C@@H](CCCCN)C(=O)NCC(=O)NCC(=O)N[C@@H](Cc1ccccc1)C(=O)N[C@@H](Cc1c[nH]c2ccccc12)C(=O)N[C@@H](CC(C)C)C(=O)N[C@@H](Cc1ccc(O)cc1)C(=O)O)C(C)C [P5, -Ahx-YFMVFGGRrRKGGFWLY (SEQ ID NO:5)] (H-[Ahx]YFMVFGGR[dR]RKGGFWLY-OH; C-terminus assumed) | capable of selectively targeting and killing EBV-infected cells | – | – | – | – | – | – | – | – | – | – | – | – | – | – | – | – | Decreased p65 expression, nuclear fraction (p65 [2]): 86%; Decreased p65 expression, nuclear fraction (p65 [3]): 89% |
| CSCC[C@H](NC(=O)[C@H](Cc1ccccc1)NC(=O)[C@H](Cc1ccc(O)cc1)NC(=O)CNC(=O)CNC(=O)[C@H](CCCCN)NC(=O)[C@H](CCCNC(=N)N)NC(=O)[C@@H](CCCNC(=N)N)NC(=O)[C@H](CCCNC(=N)N)NC(=O)CCCCCN)C(=O)N[C@H](C(=O)N[C@@H](Cc1ccccc1)C(=O)NCC(=O)NCC(=O)N[C@@H](Cc1ccccc1)C(=O)N[C@@H](Cc1c[nH]c2ccccc12)C(=O)N[C@@H](CC(C)C)C(=O)N[C@@H](Cc1ccc(O)cc1)C(=O)O)C(C)C [P6, -Ahx-RrRKGGYFMVFGGFWLY (SEQ ID NO:6)] (H-[Ahx]R[dR]RKGGYFMVFGGFWLY-OH; C-terminus assumed) | capable of selectively targeting and killing EBV-infected cells | – | – | – | – | – | – | – | – | – | – | – | – | – | – | – | – | – |
| CSCC[C@H](NC(=O)[C@H](Cc1ccccc1)NC(=O)[C@H](Cc1ccc(O)cc1)NC(=O)CNC(=O)CNC(=O)[C@H](CCCCN)NC(=O)[C@H](CCCNC(=N)N)NC(=O)[C@@H](CCCNC(=N)N)NC(=O)[C@H](CCCNC(=N)N)NC(=O)CNC(=O)CNC(=O)[C@H](Cc1ccc(O)cc1)NC(=O)[C@H](CC(C)C)NC(=O)[C@H](Cc1c[nH]c2ccccc12)NC(=O)[C@H](Cc1ccccc1)NC(=O)CCCCCN)C(=O)N[C@H](C(=O)N[C@@H](Cc1ccccc1)C(=O)O)C(C)C [P7, -Ahx-FWLYGGRrRKGGYFMVF (SEQ ID NO:7)] (H-[Ahx]FWLYGGR[dR]RKGGYFMVF-OH) | capable of selectively targeting and killing EBV-infected cells | – | – | – | – | – | – | – | – | – | – | – | – | – | – | – | – | – |
| NaGdF4:Yb^3+, Er^3+@NaGdF4 [UCNP, reference compound] | – | – | – | – | – | – | – | – | – | – | – | – | – | – | – | – | – | Tumor uptake (ICP-MS biodistribution) (C666 derived xenografts; mouse, in vivo): nearly undetectable in the tumor |
| UCNP-P6: UCNP is NaGdF4:Yb^3+, Er^3+@NaGdF4 and the plurality of polypeptides is Ahx-RrRKGGYFMVFGGFWLY (SEQ ID NO: 6) ([Ahx]R[dR]RKGGYFMVFGGFWLY; also: UCNP conjugate) | – | 0 | 0 | 0.3 | 0.8 | 1.4 | 1.9 | 5.9 | 83.3 | 34.1 | 32.2 | 21.5 | 4.6 | 0 | two-fold | no obvious effect on the tumor size | slight reduction of body weight | Peptide release rate ([4]; 5 day): 2.9%; Inhibition of EBNA1 dimerization/oligomerization [6]: eradicate all 90 mg EBNA1 dimers and oligomers; Reduced p65 expression level, cytosolic fraction (p65 [2]): 85%; Reduced p65 expression level, cytosolic fraction (p65 [3]): 87% |
| UCNP-P7: UCNP is NaGdF4:Yb^3+, Er^3+@NaGdF4 and the plurality of polypeptides is Ahx-FWLYGGRrRKGGYFMVF (SEQ ID NO: 7) ([Ahx]FWLYGGR[dR]RKGGYFMVF; also: UCNP conjugate) | – | 0 | 0 | 0.2 | 0.7 | 1.0 | 1.6 | 2.6 | 81.2 | 58.5 | 48.2 | 36.1 | 7.4 | 0 | two-fold | no obvious effect on the tumor size | slight reduction of body weight | – |
